From patent US20260242735A1

Assays:
Assay in all cases: flow cytometry, HEK293-T, alanine scan
human CD33 S324A (human) = human CD33 S324A (human) (UniProt P20138)
human CD33 V282A (human) = human CD33 V282A (human) (UniProt P20138)
human CD33 T299A (human) = human CD33 T299A (human) (UniProt P20138)
human CD33 D335A (human) = human CD33 D335A (human) (UniProt P20138)
human CD33 T284A (human) = human CD33 T284A (human) (UniProt P20138)
human CD33 S305A (human) = human CD33 S305A (human) (UniProt P20138)
Sequence of human CD33 S305A (human) (P20138 18-364 S305A limits assumed): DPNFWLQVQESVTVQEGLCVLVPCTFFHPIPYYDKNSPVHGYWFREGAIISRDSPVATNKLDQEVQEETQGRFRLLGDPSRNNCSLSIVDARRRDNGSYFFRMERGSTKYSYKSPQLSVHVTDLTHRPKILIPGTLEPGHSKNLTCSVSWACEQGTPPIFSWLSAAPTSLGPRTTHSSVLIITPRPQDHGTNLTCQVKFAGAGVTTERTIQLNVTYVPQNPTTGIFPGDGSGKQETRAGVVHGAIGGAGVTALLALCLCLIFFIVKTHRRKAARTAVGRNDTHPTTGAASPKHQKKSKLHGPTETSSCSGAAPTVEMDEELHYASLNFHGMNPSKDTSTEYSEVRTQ

human CD33 P330A (human) = human CD33 P330A (human) (UniProt P20138)
human CD33 P319A (human) = human CD33 P319A (human) (UniProt P20138)
human CD33 S326A (human) = human CD33 S326A (human) (UniProt P20138)
human CD33 G318A (human) = human CD33 G318A (human) (UniProt P20138)
human CD33 H300A (human) = human CD33 H300A (human) (UniProt P20138)
human CD33 F279A (human) = human CD33 F279A (human) (UniProt P20138)
human CD33 E321A (human) = human CD33 E321A (human) (UniProt P20138)
human CD33 E337A (human) = human CD33 E337A (human) (UniProt P20138)
human CD33 I278A (human) = human CD33 I278A (human) (UniProt P20138)
human CD33 I281A (human) = human CD33 I281A (human) (UniProt P20138)
Sequence of human CD33 I281A (human) (P20138 18-364 I281A limits assumed): as the sequence (P20138 18-364 S305A limits assumed) above, with I264A, A288S counted along it

human CD33 P301A (human) = human CD33 P301A (human) (UniProt P20138)
human CD33 L275A (human) = human CD33 L275A (human) (UniProt P20138)
human CD33 E333A (human) = human CD33 E333A (human) (UniProt P20138)
human CD33 Q311A (human) = human CD33 Q311A (human) (UniProt P20138)
human CD33 F345A (human) = human CD33 F345A (human) (UniProt P20138)
human CD33 T322A (human) = human CD33 T322A (human) (UniProt P20138)
Sequence of human CD33 T322A (human) (P20138 18-364 T322A limits assumed): as the sequence (P20138 18-364 S305A limits assumed) above, with A288S, T305A counted along it

human CD33 P308A (human) = human CD33 P308A (human) (UniProt P20138)
human CD33 R286A (human) = human CD33 R286A (human) (UniProt P20138)
Sequence of human CD33 R286A (human) (P20138 18-364 R286A limits assumed): as the sequence (P20138 18-364 S305A limits assumed) above, with R269A, A288S counted along it

human CD33 H285A (human) = human CD33 H285A (human) (UniProt P20138)
human CD33 K309A (human) = human CD33 K309A (human) (UniProt P20138)
human CD33 L343A (human) = human CD33 L343A (human) (UniProt P20138)
human CD33 K315A (human) = human CD33 K315A (human) (UniProt P20138)
human CD33 G295A (human) = human CD33 G295A (human) (UniProt P20138)
Sequence of human CD33 G295A (human) (P20138 18-364 G295A limits assumed): as the sequence (P20138 18-364 S305A limits assumed) above, with G278A, A288S counted along it

human CD33 G304A (human) = human CD33 G304A (human) (UniProt P20138)
human CD33 S323A (human) = human CD33 S323A (human) (UniProt P20138)
Sequence of human CD33 S323A (human) (P20138 18-364 S323A limits assumed): as the sequence (P20138 18-364 S305A limits assumed) above, with A288S, S306A counted along it

human CD33 A293S (human) = human CD33 A293S (human) (UniProt P20138)
human CD33 A329S (human) = human CD33 A329S (human) (UniProt P20138)
human CD33 K312A (human) = human CD33 K312A (human) (UniProt P20138)
human CD33 T302A (human) = human CD33 T302A (human) (UniProt P20138)
Sequence of human CD33 T302A (human) (P20138 18-364 T302A limits assumed): as the sequence (P20138 18-364 S305A limits assumed) above, with T285A, A288S counted along it

human CD33 N297A (human) = human CD33 N297A (human) (UniProt P20138)
Sequence of human CD33 N297A (human) (P20138 18-364 N297A limits assumed): as the sequence (P20138 18-364 S305A limits assumed) above, with N280A, A288S counted along it

human CD33 G327A (human) = human CD33 G327A (human) (UniProt P20138)
human CD33 A341S (human) = human CD33 A341S (human) (UniProt P20138)
Sequence of human CD33 A341S (human) (P20138 18-364 A341S limits assumed): as the sequence (P20138 18-364 S305A limits assumed) above, with A288S, A324S counted along it

human CD33 E336A (human) = human CD33 E336A (human) (UniProt P20138)
Sequence of human CD33 E336A (human) (P20138 18-364 E336A limits assumed): as the sequence (P20138 18-364 S305A limits assumed) above, with A288S, E319A counted along it

human CD33 Y340A (human) = human CD33 Y340A (human) (UniProt P20138)
human CD33 H310A (human) = human CD33 H310A (human) (UniProt P20138)
Sequence of human CD33 H310A (human) (P20138 18-364 H310A limits assumed): as the sequence (P20138 18-364 S305A limits assumed) above, with A288S, H293A counted along it

human CD33 A306S (human) = human CD33 A306S (human) (UniProt P20138)
Sequence of human CD33 A306S (human) (P20138 18-364 A306S limits assumed): as the sequence (P20138 18-364 S305A limits assumed) above, with A288S, A289S counted along it

human CD33 S342A (human) = human CD33 S342A (human) (UniProt P20138)
human CD33 T320A (human) = human CD33 T320A (human) (UniProt P20138)
human CD33 L273A (human) = human CD33 L273A (human) (UniProt P20138)
Sequence of human CD33 L273A (human) (P20138 18-364 L273A limits assumed): as the sequence (P20138 18-364 S305A limits assumed) above, with L256A, A288S counted along it

human CD33 H339A (human) = human CD33 H339A (human) (UniProt P20138)
Sequence of human CD33 H339A (human) (P20138 18-364 H339A limits assumed): as the sequence (P20138 18-364 S305A limits assumed) above, with A288S, H322A counted along it

Question: What does the source list for Refmab #7 (WM53) (antibody)?
Answer: Mean % WT Binding (human CD33 S324A (human)): 99.2 % WT binding; Mean % WT Binding (human CD33 V282A (human)): 106 % WT binding; Mean % WT Binding (human CD33 T299A (human)): 109 % WT binding; Mean % WT Binding (human CD33 D335A (human)): 106 % WT binding; Mean % WT Binding (human CD33 T284A (human)): 120 % WT binding; Mean % WT Binding (human CD33 S305A (human)): 106 % WT binding; Mean % WT Binding (human CD33 P330A (human)): 102 % WT binding; Mean % WT Binding (human CD33 P319A (human)): 114 % WT binding; Mean % WT Binding (human CD33 S326A (human)): 103 % WT binding; Mean % WT Binding (human CD33 G318A (human)): 128 % WT binding; Mean % WT Binding (human CD33 H300A (human)): 106 % WT binding; Mean % WT Binding (human CD33 F279A (human)): 124 % WT binding; Mean % WT Binding (human CD33 E321A (human)): 109 % WT binding; Mean % WT Binding (human CD33 E337A (human)): 102 % WT binding; Mean % WT Binding (human CD33 I278A (human)): 93.2 % WT binding; Mean % WT Binding (human CD33 I281A (human)): 110 % WT binding; Mean % WT Binding (human CD33 P301A (human)): 99.8 % WT binding; Mean % WT Binding (human CD33 L275A (human)): 106 % WT binding; Mean % WT Binding (human CD33 E333A (human)): 91 % WT binding; Mean % WT Binding (human CD33 Q311A (human)): 93.6 % WT binding; Mean % WT Binding (human CD33 F345A (human)): 140 % WT binding; Mean % WT Binding (human CD33 T322A (human)): 102 % WT binding; Mean % WT Binding (human CD33 P308A (human)): 111 % WT binding; Mean % WT Binding (human CD33 R286A (human)): 134 % WT binding; Mean % WT Binding (human CD33 H285A (human)): 109 % WT binding; Mean % WT Binding (human CD33 K309A (human)): 93.6 % WT binding; Mean % WT Binding (human CD33 L343A (human)): 96.2 % WT binding; Mean % WT Binding (human CD33 K315A (human)): 112 % WT binding; Mean % WT Binding (human CD33 G295A (human)): 115 % WT binding; Mean % WT Binding (human CD33 G304A (human)): 103 % WT binding; Mean % WT Binding (human CD33 S323A (human)): 109 % WT binding; Mean % WT Binding (human CD33 A293S (human)): 120 % WT binding; Mean % WT Binding (human CD33 A329S (human)): 120 % WT binding; Mean % WT Binding (human CD33 K312A (human)): 101 % WT binding; Mean % WT Binding (human CD33 T302A (human)): 113 % WT binding; Mean % WT Binding (human CD33 N297A (human)): 81.2 % WT binding; Mean % WT Binding (human CD33 G327A (human)): 110 % WT binding; Mean % WT Binding (human CD33 A341S (human)): 95 % WT binding; Mean % WT Binding (human CD33 E336A (human)): 98.4 % WT binding; Mean % WT Binding (human CD33 Y340A (human)): 112 % WT binding; Mean % WT Binding (human CD33 H310A (human)): 90.4 % WT binding; Mean % WT Binding (human CD33 A306S (human)): 100 % WT binding; Mean % WT Binding (human CD33 S342A (human)): 95.2 % WT binding; Mean % WT Binding (human CD33 T320A (human)): 117 % WT binding; Mean % WT Binding (human CD33 L273A (human)): 92.5 % WT binding; Mean % WT Binding (human CD33 H339A (human)): 133 % WT binding
